Test results reported in PMC8648943.

Columns and labels:
[1] = molecular target: Pf3 coat protein with single cysteine 47C, tethered by its C-terminal end to the AFM tip through a PEG27-linker (phage Pf3) (UniProt P03623); experiment: FD-AFM-based single-molecule force spectroscopy; as a2, contact time 52 ms
[2] = molecular target: Pf3 coat protein with single cysteine 47C, tethered by its C-terminal end to the AFM tip through a PEG27-linker (phage Pf3) (UniProt P03623); experiment: FD-AFM-based single-molecule force spectroscopy; Pf3 tethered through PEG27 to the AFM tip, YidC in supported POPE:POPG membranes on mica; contact time ≈2 ms; pulling velocity 3–4.5 µm s^–1; room temperature; 150 mM KCl, 20 mM HEPES, pH 7.4
[3] = molecular target: Pf3 coat protein with single cysteine 47C, tethered by its C-terminal end to the AFM tip through a PEG27-linker (phage Pf3) (UniProt P03623); experiment: dynamic single-molecule force spectroscopy (DFS) by AFM; as a5, contact time 52 ms
[4] = molecular target: Pf3 coat protein with single cysteine 47C, tethered by its C-terminal end to the AFM tip through a PEG27-linker (phage Pf3) (UniProt P03623); experiment: dynamic single-molecule force spectroscopy (DFS) by AFM; Pf3 tethered through PEG27 to the AFM tip, YidC in supported POPE:POPG membranes; contact time 2 ms; pulling velocities 1–25 µm s^–1; Bell-Evans fit, k0 = zero-force transition rate of the bond; room temperature
[5] = molecular target: Pf3 coat protein with single cysteine 47C, tethered by its C-terminal end to the AFM tip through a PEG27-linker (phage Pf3) (UniProt P03623); experiment: AFM-based single-molecule force spectroscopy (height clamp mode); Pf3 tethered by its C-terminal end through a PEG27-linker to the AFM tip, held ≈5–10 nm above a supported POPE:POPG membrane with YidC for ≈1–2 s; force-time curves; lifetimes fitted with the Bell model; room temperature; 150 mM KCl, 20 mM HEPES, pH 7.4
[6] = molecular target: Pf3 coat protein with single cysteine 47C, tethered by its C-terminal end to the AFM tip through a PEG27-linker (phage Pf3) (UniProt P03623); experiment: FD-AFM-based single-molecule force spectroscopy; as a2, contact time 502 ms
[7] = molecular target: Pf3-47C labelled with Atto520 (phage Pf3) (UniProt P03623); experiment: FRET or BRET; single-molecule FRET on a confocal FCS setup; proteoliposomes with 1 nM YidC S405C-Atto647N (acceptor) mixed with 1 nM Atto520-labelled Pf3-47C (donor); 300 mM NaCl, 20 mM Tris-HCl, pH 7.5; recorded for 360 s

| Molecule | fraction of (un-)binding forces >50 pN [1] [%] | mean (un-)binding force [1] [pN] | mean (un-)binding force [2] [pN] | koff [4] [s⁻¹] | further results |
| --- | --- | --- | --- | --- | --- |
| ΔCH2 YidC mutant (residues 399–415 deleted) (from UniProt P25714 1-548) (enzyme) | 22.2 | 41 | 35.4 | – | – |
| wild-type (wt) YidC insertase from E. coli (from UniProt P25714 1-548) | – | – | – | – | koff [3]: 2 s⁻¹ |
| ΔCH2 YidC mutant (residues 399–415 deleted) (from UniProt P25714 1-548) | – | – | – | 0.07 | – |
| wild-type (wt) YidC insertase from E. coli (from UniProt P25714 1-548) (enzyme) | 48.7 | 47.6 | 29.5 | 0.03 | lifetime of the bond (reciprocal of k0) [3]: 0.5 s; lifetime of the bond (reciprocal of k0) [4]: 33 s; bond lifetime at zero force (t0, Bell model) [5]: 0.32 s; fraction of force-time curves with interaction events [5]: 2 to 4%; koff [5]: 3.1 s⁻¹; mean (un-)binding force [6]: 50.8 pN |
| R366E YidC mutant (from UniProt P25714 1-548) (enzyme) | 10.5 | 31.5 | 29.1 | 0.03 | – |
| R366E YidC S405C labelled with Atto647N (enzyme, Atto647N (acceptor) on cysteine S405C in the cytoplasmic α-helical hairpin) MDSQRNLLVIALLFVSFMIWQAWEQDKNPQPQAQQTTQTTTTAAGSAADQGVPASGQGKLISVKTDVLDLTINTRGGDVEQALLPAYPKELNSTQPFQLLETSPQFIYQAQSGLTGRDGPDNPANGPRPLYNVEKDAYVLAEGQNELQVPMTYTDAAGNTFTKTFVLKRGDYAVNVNYNVQNAGEKPLEISSFGQLKQSITLPPHLDTGSSNFALHTFRGAAYSTPDEKYEKYKFDTIADNENLNISSKGGWVAMLQQYFATAWIPHNDGTNNFYTANLGNGIAAIGYKSQPVLVQPGQTGAMNSTLWVGPEIQDKMAAVAPHLDLTVDYGWLWFISQPLFKLLKWIHSFVGNWGFSIIIITFIVEGIMYPLTKAQYTSMAKMRMLQPKIQAMRERLGDDKQRICQEMMALYKAEKVNPLGGSFPLLIQMPIFLALYYMLMGSVELRQAPFALWIHDLSAQDPYYILPILMGVTMFFIQKMSPTTVTDPMQQKIMTFMPVIFTVFFLWFPSGLVLYYIVSNLVTIIQQQLIYRGLEKRGLHSREKKKS | – | – | – | – | FRET events relative to wt YidC within 360 s [7]: 25% |
